Common to all, as to assay: EMSA
On the technique in general: A gel shift assay detects complexes by their altered migration in electrophoresis.

One series has as its target T1, SMC1 head 4E (Homo sapiens, UniProt Q14683;O60216 1-200+=GGGGG+1030-1233;531-631, K52E;R57E;K59E;R62E;internal_change).
T1 sequence 1: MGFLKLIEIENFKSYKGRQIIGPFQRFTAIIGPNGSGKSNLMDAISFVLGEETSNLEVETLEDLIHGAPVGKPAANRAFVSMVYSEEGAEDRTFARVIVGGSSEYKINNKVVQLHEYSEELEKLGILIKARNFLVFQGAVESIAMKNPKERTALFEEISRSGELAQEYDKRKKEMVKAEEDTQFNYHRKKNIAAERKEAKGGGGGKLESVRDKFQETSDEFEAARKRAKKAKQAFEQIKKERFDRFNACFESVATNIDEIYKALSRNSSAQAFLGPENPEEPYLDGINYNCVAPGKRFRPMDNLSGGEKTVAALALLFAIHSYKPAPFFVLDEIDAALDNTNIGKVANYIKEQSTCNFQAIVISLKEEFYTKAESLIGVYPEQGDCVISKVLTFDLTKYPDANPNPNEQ
T1 sequence 2: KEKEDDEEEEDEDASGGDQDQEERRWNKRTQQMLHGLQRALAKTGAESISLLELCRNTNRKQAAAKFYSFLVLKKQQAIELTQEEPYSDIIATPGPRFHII

The target of series [1] is T2, SMC3 head (Halo-SMC3HD-SCC1(Nt)) (Homo sapiens, UniProt Q9UQE7 1-251+=GGGGG+956-1216+=[…]+O60216:2-75, internal_change).
T2 sequence: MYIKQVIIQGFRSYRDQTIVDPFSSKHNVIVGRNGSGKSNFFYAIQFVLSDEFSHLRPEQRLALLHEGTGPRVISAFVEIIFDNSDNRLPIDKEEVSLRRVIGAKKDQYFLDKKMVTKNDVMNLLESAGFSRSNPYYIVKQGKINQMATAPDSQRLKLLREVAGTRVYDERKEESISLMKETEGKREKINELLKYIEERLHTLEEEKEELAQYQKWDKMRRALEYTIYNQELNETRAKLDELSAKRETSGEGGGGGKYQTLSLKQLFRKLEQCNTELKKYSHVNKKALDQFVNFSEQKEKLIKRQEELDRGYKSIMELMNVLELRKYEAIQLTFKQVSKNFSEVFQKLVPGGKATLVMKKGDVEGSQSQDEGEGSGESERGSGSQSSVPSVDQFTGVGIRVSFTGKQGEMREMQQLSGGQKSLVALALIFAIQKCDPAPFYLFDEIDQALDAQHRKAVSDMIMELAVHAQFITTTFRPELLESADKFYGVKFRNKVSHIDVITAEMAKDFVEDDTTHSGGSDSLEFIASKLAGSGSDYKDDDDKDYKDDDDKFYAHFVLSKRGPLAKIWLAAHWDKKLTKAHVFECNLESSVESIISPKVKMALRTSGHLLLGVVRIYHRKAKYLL

A further series addresses T3, deltaN-STAG1/SCC1(int) (Homo sapiens, UniProt Q8WVM7;O60216 71-1258;281-420).
T3 sequence 1: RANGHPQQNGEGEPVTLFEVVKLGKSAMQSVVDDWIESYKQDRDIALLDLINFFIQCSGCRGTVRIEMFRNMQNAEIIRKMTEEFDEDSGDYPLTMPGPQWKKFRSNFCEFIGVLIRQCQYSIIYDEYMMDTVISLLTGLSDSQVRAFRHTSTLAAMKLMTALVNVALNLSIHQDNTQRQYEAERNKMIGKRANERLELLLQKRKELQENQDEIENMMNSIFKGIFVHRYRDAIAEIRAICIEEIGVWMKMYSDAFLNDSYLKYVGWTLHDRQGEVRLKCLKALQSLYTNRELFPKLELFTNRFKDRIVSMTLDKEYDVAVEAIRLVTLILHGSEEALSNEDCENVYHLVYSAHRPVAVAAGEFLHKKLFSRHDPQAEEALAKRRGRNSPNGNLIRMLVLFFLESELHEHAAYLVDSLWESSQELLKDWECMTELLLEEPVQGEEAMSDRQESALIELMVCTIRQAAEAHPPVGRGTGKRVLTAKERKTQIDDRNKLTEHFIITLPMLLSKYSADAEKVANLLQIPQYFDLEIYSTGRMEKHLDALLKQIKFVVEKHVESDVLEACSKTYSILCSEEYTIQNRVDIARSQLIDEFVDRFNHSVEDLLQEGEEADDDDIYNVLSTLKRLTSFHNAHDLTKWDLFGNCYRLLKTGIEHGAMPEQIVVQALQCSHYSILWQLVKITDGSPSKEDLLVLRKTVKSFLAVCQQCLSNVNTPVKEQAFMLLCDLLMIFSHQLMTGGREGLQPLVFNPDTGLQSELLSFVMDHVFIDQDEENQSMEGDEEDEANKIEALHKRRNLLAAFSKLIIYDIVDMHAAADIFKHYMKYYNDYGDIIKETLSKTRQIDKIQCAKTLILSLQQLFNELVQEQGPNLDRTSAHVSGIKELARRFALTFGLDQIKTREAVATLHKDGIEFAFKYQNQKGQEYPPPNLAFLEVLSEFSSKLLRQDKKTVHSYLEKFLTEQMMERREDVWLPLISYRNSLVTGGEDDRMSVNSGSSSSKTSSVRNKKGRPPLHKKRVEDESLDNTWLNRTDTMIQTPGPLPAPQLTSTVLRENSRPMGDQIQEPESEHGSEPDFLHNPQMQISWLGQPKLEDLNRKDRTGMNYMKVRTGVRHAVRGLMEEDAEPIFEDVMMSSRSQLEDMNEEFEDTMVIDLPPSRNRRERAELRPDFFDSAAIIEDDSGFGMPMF
T3 sequence 2: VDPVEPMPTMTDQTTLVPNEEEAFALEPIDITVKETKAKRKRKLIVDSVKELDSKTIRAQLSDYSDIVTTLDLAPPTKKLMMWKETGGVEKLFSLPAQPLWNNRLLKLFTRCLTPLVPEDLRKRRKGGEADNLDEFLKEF

A further series concerns the target deltaN-NIPBL2A (Homo sapiens, UniProt Q6KC79 1-21+1041-2804, R1867A;K1870A;internal_change).
A further series has as its target hinge (SMC1-SMC3) (Homo sapiens, UniProt Q9UQE7;Q14683 484-696;461-685).

Chain of hinge (SMC1-SMC3) (Q9UQE7 484-696, chain 1 of 2): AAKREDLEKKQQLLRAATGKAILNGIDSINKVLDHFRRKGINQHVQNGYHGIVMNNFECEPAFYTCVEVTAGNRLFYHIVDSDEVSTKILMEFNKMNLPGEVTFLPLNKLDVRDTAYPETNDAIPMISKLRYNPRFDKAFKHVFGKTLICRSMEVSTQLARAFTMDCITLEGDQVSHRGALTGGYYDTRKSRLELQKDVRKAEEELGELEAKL
Chain of hinge (SMC1-SMC3) (Q14683 461-685, chain 2 of 2): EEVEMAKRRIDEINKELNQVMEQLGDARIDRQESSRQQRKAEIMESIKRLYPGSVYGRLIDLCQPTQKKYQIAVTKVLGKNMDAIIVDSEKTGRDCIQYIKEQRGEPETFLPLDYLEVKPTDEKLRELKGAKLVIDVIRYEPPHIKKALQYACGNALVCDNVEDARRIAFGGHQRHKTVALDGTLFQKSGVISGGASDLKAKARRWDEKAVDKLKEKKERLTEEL

B1: 40 bp dsDNA EMSA probe (dsDNA)
DNA 1: GCGGGTAATCCAGAGCCAGACGAGCACTACGAACAACTAA
DNA 2: TTAGTTGTTCGTAGTGCTCGTCTGGCTCTGGATTACCCGC
On to B1, for which the binding result with SMC1 head 4E is “no binding”; in series [1], “binds”; in the series with deltaN-STAG1/SCC1(int) it was “binds”; in the series with deltaN-NIPBL2A, “no binding”; with hinge (SMC1-SMC3) it was “binds”.

For the origin of these results see PMC8563363.
